Test results reported in patent US12679878B2, “CRF2 receptor agonists and their use in therapy” (SANOFI, priority 2020, dated 2026).
Starred links: 1 amine or outer side, 2 acyl side, 3 side chain; linkers in the order of their positions; H or OH if unused. Groups on a side chain read outwards from the residue. No end group written: not given here. *: point of attachment. C18 diacid = O=C(O)CCCCCCCCCCCCCCCCC(=O)*; γGlu = O=C(O)[C@H](CCC(=O)[*:2])N[*:1]; Palmitoyl = CCCCCCCCCCCCCCCC(=O)*; AEEA = NCCOCCOCC(=O)O

Target: human corticotropin-releasing factor 2α (CRF2 α receptor) (human), Q13324
Sequence (Q13324 20-411): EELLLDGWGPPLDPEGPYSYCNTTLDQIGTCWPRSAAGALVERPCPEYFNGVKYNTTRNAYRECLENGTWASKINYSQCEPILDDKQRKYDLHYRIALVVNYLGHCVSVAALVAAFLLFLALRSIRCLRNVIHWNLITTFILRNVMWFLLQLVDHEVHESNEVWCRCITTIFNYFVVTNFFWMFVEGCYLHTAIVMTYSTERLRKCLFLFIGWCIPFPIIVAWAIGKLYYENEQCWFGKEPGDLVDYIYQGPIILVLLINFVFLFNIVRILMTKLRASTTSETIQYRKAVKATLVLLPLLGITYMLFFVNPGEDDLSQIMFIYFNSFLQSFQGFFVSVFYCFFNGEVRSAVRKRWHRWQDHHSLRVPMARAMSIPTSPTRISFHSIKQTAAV
Test: cell-based or functional assay

B1: SEQ ID NO: 57 (peptide)
peptide: FTLSLDVPIGLK([AEEA-AEEA-γGlu-C18 diacid])QILLKQQKQKKERQKAETNVQLLERV-NH2
modifications: N-terminus assumed
SMILES: CC[C@H](C)[C@H](NC(=O)[C@H](CCC(N)=O)NC(=O)[C@H](CCCCNC(=O)COCCOCCNC(=O)COCCOCCNC(=O)CC[C@H](NC(=O)CCCCCCCCCCCCCCCCC(=O)O)C(=O)O)NC(=O)[C@H](CC(C)C)NC(=O)CNC(=O)[C@@H](NC(=O)[C@@H]1CCCN1C(=O)[C@@H](NC(=O)[C@H](CC(=O)O)NC(=O)[C@H](CC(C)C)NC(=O)[C@H](CO)NC(=O)[C@H](CC(C)C)NC(=O)[C@@H](NC(=O)[C@@H](N)Cc1ccccc1)[C@@H](C)O)C(C)C)[C@@H](C)CC)C(=O)N[C@@H](CC(C)C)C(=O)N[C@@H](CC(C)C)C(=O)N[C@@H](CCCCN)C(=O)N[C@@H](CCC(N)=O)C(=O)N[C@@H](CCC(N)=O)C(=O)N[C@@H](CCCCN)C(=O)N[C@@H](CCC(N)=O)C(=O)N[C@@H](CCCCN)C(=O)N[C@@H](CCCCN)C(=O)N[C@@H](CCC(=O)O)C(=O)N[C@@H](CCCNC(=N)N)C(=O)N[C@@H](CCC(N)=O)C(=O)N[C@@H](CCCCN)C(=O)N[C@@H](C)C(=O)N[C@@H](CCC(=O)O)C(=O)N[C@H](C(=O)N[C@@H](CC(N)=O)C(=O)N[C@H](C(=O)N[C@@H](CCC(N)=O)C(=O)N[C@@H](CC(C)C)C(=O)N[C@@H](CC(C)C)C(=O)N[C@@H](CCC(=O)O)C(=O)N[C@@H](CCCNC(=N)N)C(=O)N[C@H](C(N)=O)C(C)C)C(C)C)[C@@H](C)O
EC50 [nM], 0% HSA: 38.8 nM

B2: SEQ ID NO: 56 (peptide)
peptide: FTLSLDVPIGLK([AEEA-AEEA-γGlu-C18 diacid])QILLKQQKQKKERQQAETNVQLLERV-NH2
modifications: N-terminus assumed
SMILES: CC[C@H](C)[C@H](NC(=O)[C@H](CCC(N)=O)NC(=O)[C@H](CCCCNC(=O)COCCOCCNC(=O)COCCOCCNC(=O)CC[C@H](NC(=O)CCCCCCCCCCCCCCCCC(=O)O)C(=O)O)NC(=O)[C@H](CC(C)C)NC(=O)CNC(=O)[C@@H](NC(=O)[C@@H]1CCCN1C(=O)[C@@H](NC(=O)[C@H](CC(=O)O)NC(=O)[C@H](CC(C)C)NC(=O)[C@H](CO)NC(=O)[C@H](CC(C)C)NC(=O)[C@@H](NC(=O)[C@@H](N)Cc1ccccc1)[C@@H](C)O)C(C)C)[C@@H](C)CC)C(=O)N[C@@H](CC(C)C)C(=O)N[C@@H](CC(C)C)C(=O)N[C@@H](CCCCN)C(=O)N[C@@H](CCC(N)=O)C(=O)N[C@@H](CCC(N)=O)C(=O)N[C@@H](CCCCN)C(=O)N[C@@H](CCC(N)=O)C(=O)N[C@@H](CCCCN)C(=O)N[C@@H](CCCCN)C(=O)N[C@@H](CCC(=O)O)C(=O)N[C@@H](CCCNC(=N)N)C(=O)N[C@@H](CCC(N)=O)C(=O)N[C@@H](CCC(N)=O)C(=O)N[C@@H](C)C(=O)N[C@@H](CCC(=O)O)C(=O)N[C@H](C(=O)N[C@@H](CC(N)=O)C(=O)N[C@H](C(=O)N[C@@H](CCC(N)=O)C(=O)N[C@@H](CC(C)C)C(=O)N[C@@H](CC(C)C)C(=O)N[C@@H](CCC(=O)O)C(=O)N[C@@H](CCCNC(=N)N)C(=O)N[C@H](C(N)=O)C(C)C)C(C)C)[C@@H](C)O
EC50 [nM], 0% HSA: 22.9 nM

B3: SEQ ID NO: 64 (peptide)
peptide: FTLSLDVPTKIKQILLKQQKQKKERQKAETNVQLLERV-NH2
modifications: not fully specified (residue 12); printed as FTLSLDVPTKIK*QILLKQQKQKKERQKAETNVQLLERV-NH2
EC50 [nM], 0% HSA: 13.2 nM

B4: SEQ ID NO: 62 (peptide)
peptide: FTLSLDVPIKLKQILLKQQKQKKERQQAETNVQLLERV-NH2
modifications: not fully specified (residue 12); printed as FTLSLDVPIKLK*QILLKQQKQKKERQQAETNVQLLERV-NH2
EC50 [nM], 0% HSA: 0.8 nM

B5: SEQ ID NO: 65 (peptide)
peptide: FTLSLDVPIGLKQILLKQQKQKKERQQAETNVQLLERV-NH2
modifications: not fully specified (residue 12); printed as FTLSLDVPIGLK*QILLKQQKQKKERQQAETNVQLLERV-NH2
EC50 [nM], 0% HSA: 9.31 nM

B6: SEQ ID NO: 61 (peptide)
peptide: FTLSLDVPTKIKQILLKQQKQKKERQQAETNKQLLERV-NH2
modifications: not fully specified (residue 12); printed as FTLSLDVPTKIK*QILLKQQKQKKERQQAETNKQLLERV-NH2
EC50 [nM], 0% HSA: 0.38 nM

B7: SEQ ID NO: 60 (peptide)
peptide: FTLSLDVPTKIKQILLKQQKQKKERQQAEKNKQLLERV-NH2
modifications: not fully specified (residue 12); printed as FTLSLDVPTKIK*QILLKQQKQKKERQQAEKNKQLLERV-NH2
EC50 [nM], 0% HSA: 0.48 nM

B8: SEQ ID NO: 66 (peptide)
peptide: FTLSLDVPIGLKQILLKQQKQKKERQKAETNVQLLERV-NH2
modifications: not fully specified (residue 12); printed as FTLSLDVPIGLK*QILLKQQKQKKERQKAETNVQLLERV-NH2
EC50 [nM], 0% HSA: 25.4 nM

B9: SEQ ID NO: 58 (peptide)
peptide: FTLSLDVPTKIKQILFKQQKQKKERQQAEKNKQLLEQI-NH2
modifications: not fully specified (residue 12); printed as FTLSLDVPTKIK*QILFKQQKQKKERQQAEKNKQLLEQI-NH2
EC50 [nM], 0% HSA: 0.28 nM

B10: SEQ ID NO: 67 (peptide)
peptide: IVLSLDVPIKLK([AEEA-AEEA-γGlu-C18 diacid])QILLEQEKQKKQREQAETNKQILAQV-NH2
modifications: N-terminus assumed
SMILES: CC[C@H](C)[C@H](N)C(=O)N[C@H](C(=O)N[C@@H](CC(C)C)C(=O)N[C@@H](CO)C(=O)N[C@@H](CC(C)C)C(=O)N[C@@H](CC(=O)O)C(=O)N[C@H](C(=O)N1CCC[C@H]1C(=O)N[C@H](C(=O)N[C@@H](CCCCN)C(=O)N[C@@H](CC(C)C)C(=O)N[C@@H](CCCCNC(=O)COCCOCCNC(=O)COCCOCCNC(=O)CC[C@H](NC(=O)CCCCCCCCCCCCCCCCC(=O)O)C(=O)O)C(=O)N[C@@H](CCC(N)=O)C(=O)N[C@H](C(=O)N[C@@H](CC(C)C)C(=O)N[C@@H](CC(C)C)C(=O)N[C@@H](CCC(=O)O)C(=O)N[C@@H](CCC(N)=O)C(=O)N[C@@H](CCC(=O)O)C(=O)N[C@@H](CCCCN)C(=O)N[C@@H](CCC(N)=O)C(=O)N[C@@H](CCCCN)C(=O)N[C@@H](CCCCN)C(=O)N[C@@H](CCC(N)=O)C(=O)N[C@@H](CCCNC(=N)N)C(=O)N[C@@H](CCC(=O)O)C(=O)N[C@@H](CCC(N)=O)C(=O)N[C@@H](C)C(=O)N[C@@H](CCC(=O)O)C(=O)N[C@H](C(=O)N[C@@H](CC(N)=O)C(=O)N[C@@H](CCCCN)C(=O)N[C@@H](CCC(N)=O)C(=O)N[C@H](C(=O)N[C@@H](CC(C)C)C(=O)N[C@@H](C)C(=O)N[C@@H](CCC(N)=O)C(=O)N[C@H](C(N)=O)C(C)C)[C@@H](C)CC)[C@@H](C)O)[C@@H](C)CC)[C@@H](C)CC)C(C)C)C(C)C
EC50 [nM], 0% HSA: 0.57 nM

B11: SEQ ID NO: 63 (peptide)
peptide: FTLSLDVPIKLKQILLEQQKQKKERQQAETNVQLLERV-NH2
modifications: not fully specified (residue 12); printed as FTLSLDVPIKLK*QILLEQQKQKKERQQAETNVQLLERV-NH2
EC50 [nM], 0% HSA: 0.63 nM

B12: SEQ ID NO: 59 (peptide)
peptide: FTLSLDVPTKIKQILLKQQKQKKERQQAEKNKQLLEQI-NH2
modifications: not fully specified (residue 12); printed as FTLSLDVPTKIK*QILLKQQKQKKERQQAEKNKQLLEQI-NH2
EC50 [nM], 0% HSA: 0.15 nM | EC50 [nM], 0.1% HSA: 17.4 nM

B13: SEQ ID NO: 3 (peptide)
peptide: IVLSLDVPIKLK([γGlu-Palmitoyl])KILLEQEKQEKEKQQAEKNAQILAQV-NH2
modifications: N-terminus assumed
SMILES: CCCCCCCCCCCCCCCC(=O)N[C@@H](CCC(=O)NCCCC[C@H](NC(=O)[C@H](CC(C)C)NC(=O)[C@H](CCCCN)NC(=O)[C@@H](NC(=O)[C@@H]1CCCN1C(=O)[C@@H](NC(=O)[C@H](CC(=O)O)NC(=O)[C@H](CC(C)C)NC(=O)[C@H](CO)NC(=O)[C@H](CC(C)C)NC(=O)[C@@H](NC(=O)[C@@H](N)[C@@H](C)CC)C(C)C)C(C)C)[C@@H](C)CC)C(=O)N[C@@H](CCCCN)C(=O)N[C@H](C(=O)N[C@@H](CC(C)C)C(=O)N[C@@H](CC(C)C)C(=O)N[C@@H](CCC(=O)O)C(=O)N[C@@H](CCC(N)=O)C(=O)N[C@@H](CCC(=O)O)C(=O)N[C@@H](CCCCN)C(=O)N[C@@H](CCC(N)=O)C(=O)N[C@@H](CCC(=O)O)C(=O)N[C@@H](CCCCN)C(=O)N[C@@H](CCC(=O)O)C(=O)N[C@@H](CCCCN)C(=O)N[C@@H](CCC(N)=O)C(=O)N[C@@H](CCC(N)=O)C(=O)N[C@@H](C)C(=O)N[C@@H](CCC(=O)O)C(=O)N[C@@H](CCCCN)C(=O)N[C@@H](CC(N)=O)C(=O)N[C@@H](C)C(=O)N[C@@H](CCC(N)=O)C(=O)N[C@H](C(=O)N[C@@H](CC(C)C)C(=O)N[C@@H](C)C(=O)N[C@@H](CCC(N)=O)C(=O)N[C@H](C(N)=O)C(C)C)[C@@H](C)CC)[C@@H](C)CC)C(=O)O
EC50 [nM], 0% HSA: 0.01 nM
